# Tests used:
# [1] = biological target: RSV F on RSV-A2 virus (Respiratory syncytial virus, RSV-A2, UniProt P03420 26-574); test: cell-based or functional assay
# [2] = biological target: RSV prefusion F (preF), DS-Cav1 (Respiratory syncytial virus, UniProt P03420 26-513); test: BLI, IgG on anti-human IgG sensor, 100 nM antigen
# [3] = biological target: RSV postfusion F (postF), F ΔFP (Respiratory syncytial virus, UniProt P03420 26-513); test: BLI, IgG on anti-human IgG sensor, 100 nM antigen
# [4] = biological target: T1, RSV postfusion F (postF), subtype A (respiratory syncytial virus subtype A, UniProt P03420 26-513); test: BLI, IgG
# T1 construct: also called Postfusion subtype A; F deltaFP
# [5] = biological target: T2, RSV prefusion F (preF), subtype B (respiratory syncytial virus subtype B); test: BLI, IgG
# T2 construct: also called Prefusion subtype B
# [6] = biological target: RSV F on RSV subtype B virus (mKate-RSV B 18537) (respiratory syncytial virus B 18537, UniProt P13843 26-574); test: cell-based or functional assay
# [7] = biological target: RSV F on RSV subtype A virus (mKate-RSV A2) (respiratory syncytial virus A2, UniProt P03420 26-574); test: cell-based or functional assay
Binder,Neutralization IC50 (RSV subtype A) [1],Kd [2],Kd [3],Kd [4],Kd [5],Neut IC50 subtype B [6],Neut IC50 subtype A [7]
"ADI-41794 (antibody, V domains shown) VH: EVQLQQWGAGLLKPSETLSLTCAVYGGSFSGYYWSWIRQPPGKGLEWIGEINHSGSTNYNPSLKSRVTISVDTSKNQFSLKLSSVTAADTAVYYCARGTRTIVYCDGDCYQPWAYHYYGMDVWGQGTTVTVSS VL: QSVVTQEPSVSAAPGQKVTISCSGGSSNIGNNYVSWYQHLPGTAPKLLIYDNDKRPSGIPDRFSGSKSGTSATLGITGLQTGDEADYYCGTWDSSLSAVVFGGGTKLTVL",> 25 µg/mL,3.31 nM,3.01 nM,,,,
"ADI-41778 (antibody, V domains shown) VH: QVQLVESGGGQGQPGRSLRLSCAASGFTFDDYAMHWVRQVPGKGLEWVSGINWNSGYIGYADSVKGRFTISRDNAKNSLYLQMNSLRAEDTALYYCAKANNPIDSSGYNRGFDTWGQGTLVTVSS VL: QSALTQPRSVSGSPGQSVTISCTGTSSDVGGYNYVSWYQQHPGKAPKLMIYDVNKRPSGVPDRFSGSKSDNTASLTISGLQAEDESDYFCCSYAGTYTWVFGGGTKVTVL",> 25 µg/mL,2.75 nM,0.504 nM,,,,
"ADI-14362 (antibody, V domains shown, full-length IgG; also called Ab 30) VH: EVQLLESGGGLVQPGGSLRLSCAASGFTFSSYAMSWVRQAPGKGLEWVSGISGSGGSTYYADSVKGRFTISRDNSKNTLYLEMNSLRAEDTAVYYCAKRYYYGSGTYTFDIWGQGTMVTVSS VL: not shown",,,,15.7 nM,119 nM,,
"ADI-41678 (antibody, V domains shown) VH: EVQLVESGGGVVQPGGSLRLSCAASGFTFRTYGMHWVRQAPGKGLEWVAVISYDGSNKYYADSLMGRFTISRDNSKNTLYLQMNSLRAEDTAVYYCAKCFVPGSGGWYEYYFDYWGQGTLVTVSS VL: QSVLTQPPSASGSPGQSVTISCTGTSSDVGGYNYVSWYQQHPGKAPKLMIYEVSKRPSGVPDRFSGSKSGNTASLTVSGLQAEDEADYYCSSYAGINNSVLFGGGTKLTVL",> 25 µg/mL,2.92 nM,1.17 nM,,,,
"ADI-41677 (antibody, V domains shown) VH: QVTLKESGPALVKPTQTLTLTCTFSGFSLSTSRMCVSWIRQPPGKALEWLARIDWDGDIYYSTSLRTRLTISKDTSKNQVVLTMTNMDPVDTATYYCARTSIYATGGYYLYYSDYWGQGTLVTVSS VL: EIVMTQSPSSLSASVGDRVTITCRASQSIASYVNWFQQKPGKAPKLLIYAASNVHSGVPSRFSGSGSGTGFTLTISSLQPEDSAIYYCQQSYTTPWTFGQGTKLEIK",> 25 µg/mL,1.28 nM,0.339 nM,,,,
"ADI-41768 (antibody, V domains shown, also called Ab 900; Antibody Number 900) VH: EVQLVESGGGLVQPGRSLRLSCAASGFTFGDYAMHWVRQAPGKGLEWVSGITWNSGRVVYADSVKGRFTISRDNAKNSLYLQINSLRAEDTALYYCVKGSCNGGICYSADYWGQGTLVTVSS VL: NFMLTQPHSVSESPGKTVTISCTRSSGSIARNFVHWYQQRPGSSPTTVIYEDNQRPSGVPGRFSGSIDSSSNSASLTISGLRSEDEADYYCQSYDSDNWVFGGGTKLTVL",> 25 µg/mL,1.61 nM,0.338 nM,,,,
"ADI-14353 (antibody, V domains shown, full-length IgG; also called Ab 21) VH: QVQLVQSGAEVKKPGSSVKVSCKASGGTFSSYTISWVRQAPGQGLEWMGRIKPIIGIANNAQRFKGRVTITAEKSTGTAYMELSSLTSEDTAVYYCARGGYDYYGMDVWGQGTTVTVSS VL: QSALTQPASVSGSPGQSITISCTGTSSDVGGYNYVSWHQQHPGKAPKLLIYDVSNRPSGVSNRFSGSKSGNTASLSISGLQAEDEADYYCSSFTSTSTPYVFGTGTQLTVL",,,,0.26 nM,12.6 nM,14.6 µg/mL,
"ADI-14389 (antibody, V domains shown, full-length IgG; also called Ab 56) VH: EVQLVESGGGLVKPGGSLRLSCAASGFTFINAWMAWVRQAPGKGPEWVGRIKSRADGGTTDYAAPVKGRFTISRDDSKNRLFLQMDSLKTDDTAVYFCTTGVRALRFYNGMDVWGQGTTVTVSS VL: ETTLTQSPSSLSASIGDRVTITCRAGQSISSFLNWYQQKPGKAPKLLIYAASTLQSGVPSRFSGSKSGTDFTLTISSLQPEDFATYYCQQSYHTFTFGPGTKVEIK",,,,22.9 nM,81.5 nM,,
"ADI-41743 (antibody, V domains shown, also called Ab 898; Antibody Number 898) VH: EVQLVESGSGLVKPSQTLSLTCSVSGGSISSGGYSWSWIRQPPGKGLEWIGFIYNTGSTYSNPSLKSRLTLSVDRSNNRFSLKLNSVTAADTGVYFCARSGNVRQCDATGHCSTNYYFEYWGLGTLVTVSS VL: EIVMTQSPATLSVSPGERATLSCRASQSVSSNLAWYQQKPGQAPRLLIYGASTRATGIPARFSGSGSGTEFTLTISSLQSEDFAVYYCQQHDDWPPLTFGGGTKVEIK",> 25 µg/mL,5.45 nM,1.27 nM,,,,
"ADI-14386 (antibody, V domains shown, full-length IgG; also called Ab 54) VH: EVQLVESGGGLVQPGGSLRLSCAASRFTFSSYAMSWVRQAPGKGLEWVSGIGASGGTTYYADSVKGRFTISRDNSKNTVYLQMNSLRAEDTAVYYCARCEYYYGSGSAGYYFDYWGQGTLVTVSS VL: SYELTQPPSVSVSPGQTASITCSGDKLGSKFAFWYQQKPGQSPVLVIFQDVKRPSGIPERFSGSNSGNTATLTISGTQAMDEADYYCQAWDSGTAVFGGGTKVTVL",,,,1.32 nM,3.04 nM,,
"ADI-41720 (antibody, V domains shown, also called Ab 896; Antibody Number 896) VH: QVQLVESGGGVVQPGRSLRLSCAASGFTFSSYGMHWVRQAPGKGLEWVSVIWFDGSKKYYEDSVKGRFTISRDNSKNTLYLEMNSLRAEDTAVYYCAREAPVRLGELSLYGYFDYWGQGTLVTVSS VL: not shown",> 25 µg/mL,22 nM,1.17 nM,,,,
"ADI-41701 (antibody, V domains shown) VH: QVQLVQSGAEVKKPGESLKISCQASGYSFTTYWIGWVRQTPGKGLEWMGIIYPGDSDTRYTPSFQGQVTISADKSISTAYLHWSSLKASDTAMYYCARLSGGYTFGFDYWGLGTLVTVSS VL: NFMLTQPHSVSESPGKTVTISCTRSSGNIARYYVQWYQQRPGRAPTTVIYEDDQRPSGVPDRFSGSIDRSSNSASLTISGLKTEDEADYYCQSYDASNYVFATGTKVTVL",> 25 µg/mL,1.93 nM,0.289 nM,,,,
"ADI-41703 (antibody, V domains shown, also called Ab 895; Antibody Number 895) VH: EVQLLESGSGLVKPLQTLSLTCAVSGGSISSGGYSWSWIRQPPGKGLEWIGYIYPSGSTYYNPSLKSRVTMSIDRSKNQFSLRLTSVTAADTAVYYCARGDGNDFWSADSSHAFAIWGQGTMVTVSS VL: EIVMTQSPGTLSLSPGERATLSCRASQIVGNSYLAWYQQKPGQAPRLLIYGASSRATGIPERFSGSGSGTDFTLTISRLEPEDFAVYHCQQYGSSPWTFGQGTKVEIK",> 25 µg/mL,4.2 nM,0.843 nM,,,,
"ADI-41737 (antibody, V domains shown, also called Ab 897; Antibody Number 897) VH: QVQLQESGPGLVKPSQTLSLTCTVSGGSMISGDFYWSWIRQPPGKGLEWIGYIYYSGTTYYSPSLKSRVSMSIDTSKSQFSLKLSSVTAADTAVYYCARKYSYGEKAYHYWGQGTLVTVSS VL: EIVLTQSPGTLSLSPGERATLSCRASQTVGNNYLAWYQQKPGQAPRLLIYGASSRATGIPDRFSGSGSGTDFTLTISRLESEDFAVYHCHQYGTSPQTFGQGTKVEIK",> 25 µg/mL,3.58 nM,1.58 nM,,,,
"ADI-14342 (antibody, V domains shown, full-length IgG; also called Ab 10) VH: QVTLKESGPVLVKPTETLTLTCTVSGFSLSNAKMGVSWIRQPPGKALEWLAYISSNDEKSYSTSLKSRLTISKDTSKSQVVLTMTNMDPVDTATYYCARILLYDSSGYYLWYFDLWGRGTLVTVSS VL: DIQVTQSPSSLSASVGDRVTITCRASQRITSYLNWYQHKPGKAPKLLIFAASSLHSGVPSTFSGSGSGTDFTLTISSLQPEDFATYYCQQSYSTPWTFGQGTKVEIK",,,,0.495 nM,26.1 nM,8.27 µg/mL,1.75 µg/mL
"ADI-14381 (antibody, V domains shown, full-length IgG; also called Ab 49) VH: EVQLVESGGGLVQPGGSLRLSCAASGFTFSSYSMNWVRQAPGKGLEWVSYIGSSSSSVYYGDSAKGRFTISRDNAKNSLYLQMNSLRDEDTALYYCARVGWLQYCRGGSCYASFGMDVWGQGTTVTVSS VL: DIQMTQSPSSLSASVGDRVTITCRASQGIRNDLGWYQQKPGIAPKLLIYAASSLQSGVPSRFSGSGSGTDFTLTISSLQPEDFATYYCLQDYDSPYTFGQGTKLEIK",,,,0.754 nM,36.7 nM,,
"ADI-14384 (antibody, V domains shown, full-length IgG; also called Ab 52) VH: QVQLQESGSGLVKPSQTLSLTCTVSGGSISSVGYSWSWIRQPPGKGLEWIGYIYHSGSPYYSPSLNSRVTISVDRSKNQFSLKLSSVTAADTAVYFCARVFFGGGGAFDIWGQGTTVTVSS VL: QPGLTQPPSVSVAPGQTARITCGGNNIGSKSVQWYQQKPGQAPVLVMYYDSDRPSGIPDRFSGSSSGNTATLTITRVEAGDEADYSCQVWDSVNVHPVIFGGGTKLTVL",,,,0.469 nM,4.78 nM,,
"ADI-41781 (antibody, V domains shown) VH: QVQLVQSGAEVRKPGASVKVSCKAFGYTFTNFAISWVRQAPGQGLEWMGWIGPYNGDTDYEQKFQGRVTMTADTSSSTVFMELRSLRFDDTAVYYCARGKGSTIPLGYYIGMDVWGQGTTVTVSS VL: ETTLTQSPSSLSASVGDRVTMTCRASQGISNYLAWYQQKPGKPPKLLIYLASSLQSGVPSRFSGSGSGTDFTLTISSLQPEDVATYYCQKYNSAPLTFGGGTKLEIK",> 25 µg/mL,3.46 nM,0.653 nM,,,,
"ADI-14373 (antibody, V domains shown, full-length IgG; also called Ab 41) VH: QVQLQQWGAGLLKPSETLSLTCAVYGGSFSGSYWSWIRQPPGKGLEWIGEINHSGSTSYNPSLKSRVTISVDTSKKQFSLKLSSMTAADTAVYYCAGGFYYDSSGSYAPHPTFDYWGQGTLVTVSS VL: not shown",,,,1.06 nM,15.9 nM,,

# Source: US20260258115A1 (MAPP BIOPHARMACEUTICAL, published 2026)
